Assay results published in paper PMC2752207 (Biomaterials, 2009).
Bridge positions count the residues as written; N and C are the ends. Ends that are not written are not given here. * marks the point of attachment. Acryloyl = C=CC(=O)*

Columns and labels:
[1] = biological target: AlexaFluor555-labeled TNFα (human, UniProt P01375 77-233, AlexaFluor 555 label (protein labeling kit; sites not stated)); experiment: FRET or BRET
recombinant human TNF-α = recombinant human TNF-α (human, UniProt P01375 77-233); experiment: uptake of the cytokine into peptide-functionalised hydrogels
recombinant human TNF-α, sequence (P01375 77-233): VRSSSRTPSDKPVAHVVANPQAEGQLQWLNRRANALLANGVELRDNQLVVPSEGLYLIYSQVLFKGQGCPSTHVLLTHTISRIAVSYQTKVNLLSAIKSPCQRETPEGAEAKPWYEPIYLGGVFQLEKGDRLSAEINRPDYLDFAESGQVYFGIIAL

AlexaFluor555-labeled TNFα, sequence (P01375 77-233): as above

binding result [1]	binding result (recombinant human TNF-α)	Binder
binds	–	KYCWSQYLCY (N-terminus acrylated (acrylic acid); FITC conjugated to the additional lysine; intramolecular disulfide bond) [acryl-(FITC)WP9QY]
–	binds	Acryloyl-YCWSQYLCY (disulfide 2-8 (inferred)) [acryl-WP9QY]
